Reference: patent US12104181B2, “Compositions and methods for treating viral infections targeting TRIM7” (THE BOARD OF REGENTS OF THE UNIVERSITY OF TEXAS SYSTEM, priority 2021, dated 2024)

B1: TRIM35: human RING type E3 ligase expressed from lentiviral vector (protein, UniProt Q9UPQ4 1-493, looked up)
E3 ubiquitin-protein ligase …: MERSPDVSPGPSRSFKEELLCAVCYDPFRDAVTLRCGHNFCRGCVSRCWEVQVSPTCPVCKDRASPADLRTNHTLNNLVEKLLREEAEGARWTSYRFSRVCRLHRGQLSLFCLEDKELLCCSCQADPRHQGHRVQPVKDTAHDFRAKCRNMEHALREKAKAFWAMRRSYEAIAKHNQVEAAWLEGRIRQEFDKLREFLRVEEQAILDAMAEETRQKQLLADEKMKQLTEETEVLAHEIERLQMEMKEDDVSFLMKHKSRKRRLFCTMEPEPVQPGMLIDVCKYLGSLQYRVWKKMLASVESVPFSFDPNTAAGWLSVSDDLTSVTNHGYRVQVENPERFSSAPCLLGSRVFSQGSHAWEVALGGLQSWRVGVVRVRQDSGAEGHSHSCYHDTRSGFWYVCRTQGVEGDHCVTSDPATSPLVLAIPRRLRVELECEEGELSFYDAERHCHLYTFHARFGEVRPYFYLGGARGAGPPEPLRICPLHISVKEELDG
B2: TRIM40: human RING type E3 ligase expressed from lentiviral vector (protein, UniProt Q6P9F5 1-258, looked up)
E3 ubiquitin ligase TRIM40: MIPLQKDNQEEGVCPICQESLKEAVSTNCGHLFCRVCLTQHVEKASASGVFCCPLCRKPCSEEVLGTGYICPNHQKRVCRFCEESRLLLCVECLVSPEHMSHHELTIENALSHYKERLNRRSRKLRKDIAELQRLKAQQEKKLQALQFQVDHGNHRLEAGPESQHQTREQLGALPQQWLGQLEHMPAEAARILDISRAVTQLRSLVIDLERTAKELDTNTLKNAGDLLNRSAPQKLEVIYPQLEKGVSELLLQPPQKL
modifications: lentiviral expression
notes: human RING type E3 ligase expressed from lentiviral vector
B3: TRIM46: human RING type E3 ligase expressed from lentiviral vector (protein, UniProt Q7Z4K8 1-759, looked up)
Tripartite motif-containing …: MAEGEDMQTFTSIMDALVRISTSMKNMEKELLCPVCQEMYKQPLVLPCTHNVCQACAREVLGQQGYIGHGGDPSSEPTSPASTPSTRSPRLSRRTLPKPDRLDRLLKSGFGTYPGRKRGALHPQVIMFPCPACQGDVELGERGLAGLFRNLTLERVVERYRQSVSVGGAILCQLCKPPPLEATKGCTECRATFCNECFKLFHPWGTQKAQHEPTLPTLSFRPKGLMCPDHKEEVTHYCKTCQRLVCQLCRVRRTHSGHKITPVLSAYQALKDKLTKSLTYILGNQDTVQTQICELEEAVRHTEVSGQQAKEEVSQLVRGLGAVLEEKRASLLQAIEECQQERLARLSAQIQEHRSLLDGSGLVGYAQEVLKETDQPCFVQAAKQLHNRIARATEALQTFRPAASSSFRHCQLDVGREMKLLTELNFLRVPEAPVIDTQRTFAYDQIFLCWRLPPHSPPAWHYTVEFRRTDVPAQPGPTRWQRREEVRGTSALLENPDTGSVYVLRVRGCNKAGYGEYSEDVHLHTPPAPVLHFFLDSRWGASRERLAISKDQRAVRSVPGLPLLLAADRLLTGCHLSVDVVLGDVAVTQGRSYWACAVDPASYLVKVGVGLESKLQESFQGAPDVISPRYDPDSGHDSGAEDATVEASPPFAFLTIGMGKILLGSGASSNAGLTGRDGPTAGCTVPLPPRLGICLDYERGRVSFLDAVSFRGLLECPLDCSGPVCPAFCFIGGGAVQLQEPVGTKPERKVTIGGFAKLD
modifications: lentiviral expression
notes: as for B2
B4: TRIM45: human RING type E3 ligase expressed from lentiviral vector (protein, UniProt Q9H8W5 1-580, looked up)
E3 ubiquitin-protein ligase …: MSENRKPLLGFVSKLTSGTALGNSGKTHCPLCLGLFKAPRLLPCLHTVCTTCLEQLEPFSVVDIRGGDSDTSSEGSIFQELKPRSLQSQIGILCPVCDAQVDLPMGGVKALTIDHLAVNDVMLESLRGEGQGLVCDLCNDREVEKRCQTCKANLCHFCCQAHRRQKKTTYHTMVDLKDLKGYSRIGKPILCPVHPAEELRLFCEFCDRPVCQDCVVGEHREHPCDFTSNVIHKHGDSVWELLKGTQPHVEALEEALAQIHIINSALQKRVEAVAADVRTFSEGYIKAIEEHRDKLLKQLEDIRAQKENSLQLQKAQLEQLLADMRTGVEFTEHLLTSGSDLEILITKRVVVERLRKLNKVQYSTRPGVNDKIRFCPQEKAGQCRGYEIYGTINTKEVDPAKCVLQGEDLHRAREKQTASFTLLCKDAAGEIMGRGGDNVQVAVVPKDKKDSPVRTMVQDNKDGTYYISYTPKEPGVYTVWVCIKEQHVQGSPFTVMVRRKHRPHSGVFHCCTFCSSGGQKTARCACGGTMPGGYLGCGHGHKGHPGHPHWSCCGKFNEKSECTWTGGQSAPRSLLRTVAL
B5: TRIM44: human RING type E3 ligase expressed from lentiviral vector (protein, UniProt Q96DX7 1-344, looked up)
Tripartite motif-containing …: MASGVGAAFEELPHDGTCDECEPDEAPGAEEVCRECGFCYCRRHAEAHRQKFLSHHLAEYVHGSQAWTPPADGEGAGKEEAEVKVEQEREIESEAGEESESEEESESEEESETEEESEDESDEESEEDSEEEMEDEQESEAEEDNQEEGESEAEGETEAESEFDPEIEMEAERVAKRKCPDHGLDLSTYCQEDRQLICVLCPVIGAHQGHQLSTLDEAFEELRSKDSGGLKAAMIELVERLKFKSSDPKVTRDQMKMFIQQEFKKVQKVIADEEQKALHLVDIQEAMATAHVTEILADIQSHMDRLMTQMAQAKEQLDTSNESAEPKAEGDEEGPSGASEEEDT
modifications: lentiviral expression
notes: as for B2
B6: TRIM43: human RING type E3 ligase expressed from lentiviral vector (protein, UniProt Q96BQ3 1-446, looked up)
Tripartite motif-containing …: MDSDFSHAFQKELTCVICLNYLVDPVTICCGHSFCRPCLCLSWEEAQSPANCPACREPSPKMDFKTNILLKNLVTIARKASLWQFLSSEKQICGTHRQTKKMFCDMDKSLLCLLCSNSQEHGAHKHHPIEEAAEEHREKLLKQMRILWKKIQENQRNLYEEGRTAFLWRGNVVLRAQMIRNEYRKLHPVLHKEEKQHLERLNKEYQEIFQQLQRSWVKMDQKSKHLKEMYQELMEMCHKPDVELLQDLGDIVARSESVLLHMPQPVNPELTAGPITGLVYRLNRFRVEISFHFEVTNHNIRLFEDVRSWMFRRGPLNSDRSDYFAAWGARVFSFGKHYWELDVDNSCDWALGVCNNSWIRKNSTMVNSEDIFLLLCLKVDNHFNLLTTSPVFPHYIEKPLGRVGVFLDFESGSVSFLNVTKSSLIWSYPAGSLTFPVRPFFYTGHR
B7: TRIM38: human RING type E3 ligase expressed from lentiviral vector (protein, UniProt O00635 1-465, looked up)
E3 ubiquitin-protein ligase …: MASTTSTKKMMEEATCSICLSLMTNPVSINCGHSYCHLCITDFFKNPSQKQLRQETFCCPQCRAPFHMDSLRPNKQLGSLIEALKETDQEMSCEEHGEQFHLFCEDEGQLICWRCERAPQHKGHTTALVEDVCQGYKEKLQKAVTKLKQLEDRCTEQKLSTAMRITKWKEKVQIQRQKIRSDFKNLQCFLHEEEKSYLWRLEKEEQQTLSRLRDYEAGLGLKSNELKSHILELEEKCQGSAQKLLQNVNDTLSRSWAVKLETSEAVSLELHTMCNVSKLYFDVKKMLRSHQVSVTLDPDTAHHELILSEDRRQVTRGYTQENQDTSSRRFTAFPCVLGCEGFTSGRRYFEVDVGEGTGWDLGVCMENVQRGTGMKQEPQSGFWTLRLCKKKGYVALTSPPTSLHLHEQPLLVGIFLDYEAGVVSFYNGNTGCHIFTFPKASFSDTLRPYFQVYQYSPLFLPPPGD
modifications: lentiviral expression
notes: as for B2
B8: TRIM37: human RING type E3 ligase expressed from lentiviral vector (protein, UniProt O94972 1-964, looked up)
E3 ubiquitin-protein ligase …: MDEQSVESIAEVFRCFICMEKLRDARLCPHCSKLCCFSCIRRWLTEQRAQCPHCRAPLQLRELVNCRWAEEVTQQLDTLQLCSLTKHEENEKDKCENHHEKLSVFCWTCKKCICHQCALWGGMHGGHTFKPLAEIYEQHVTKVNEEVAKLRRRLMELISLVQEVERNVEAVRNAKDERVREIRNAVEMMIARLDTQLKNKLITLMGQKTSLTQETELLESLLQEVEHQLRSCSKSELISKSSEILMMFQQVHRKPMASFVTTPVPPDFTSELVPSYDSATFVLENFSTLRQRADPVYSPPLQVSGLCWRLKVYPDGNGVVRGYYLSVFLELSAGLPETSKYEYRVEMVHQSCNDPTKNIIREFASDFEVGECWGYNRFFRLDLLANEGYLNPQNDTVILRFQVRSPTFFQKSRDQHWYITQLEAAQTSYIQQINNLKERLTIELSRTQKSRDLSPPDNHLSPQNDDALETRAKKSACSDMLLEGGPTTASVREAKEDEEDEEKIQNEDYHHELSDGDLDLDLVYEDEVNQLDGSSSSASSTATSNTEENDIDEETMSGENDVEYNNMELEEGELMEDAAAAGPAGSSHGYVGSSSRISRRTHLCSAATSSLLDIDPLILIHLLDLKDRSSIENLWGLQPRPPASLLQPTASYSRKDKDQRKQQAMWRVPSDLKMLKRLKTQMAEVRCMKTDVKNTLSEIKSSSAASGDMQTSLFSADQAALAACGTENSGRLQDLGMELLAKSSVANCYIRNSTNKKSNSPKPARSSVAGSLSLRRAVDPGENSRSKGDCQTLSEGSPGSSQSGSRHSSPRALIHGSIGDILPKTEDRQCKALDSDAVVVAVFSGLPAVEKRRKMVTLGANAKGGHLEGLQMTDLENNSETGELQPVLPEGASAAPEEGMSSDSDIECDTENEEQEEHTSVGGFHDSFMVMTQPPDEDTHSSFPDGEQIGPEDLSFNTDENSGR
modifications: lentiviral expression
notes: as for B2
B9: TRIM39: human RING type E3 ligase expressed from lentiviral vector (protein, UniProt Q9HCM9 1-518, looked up)
E3 ubiquitin-protein ligase …: MAETSLLEAGASAASTAAALENLQVEASCSVCLEYLKEPVIIECGHNFCKACITRWWEDLERDFPCPVCRKTSRYRSLRPNRQLGSMVEIAKQLQAVKRKIRDESLCPQHHEALSLFCYEDQEAVCLICAISHTHRAHTVVPLDDATQEYKEKLQKCLEPLEQKLQEITRCKSSEEKKPGELKRLVESRRQQILREFEELHRRLDEEQQVLLSRLEEEEQDILQRLRENAAHLGDKRRDLAHLAAEVEGKCLQSGFEMLKDVKSTLEKNIPRKFGGSLSTICPRDHKALLGLVKEINRCEKVKTMEVTSVSIELEKNFSNFPRQYFALRKILKQLIADVTLDPETAHPNLVLSEDRKSVKFVETRLRDLPDTPRRFTFYPCVLATEGFTSGRHYWEVEVGDKTHWAVGVCRDSVSRKGELTPLPETGYWRVRLWNGDKYAATTTPFTPLHIKVKPKRVGIFLDYEAGTLSFYNVTDRSHIYTFTDTFTEKLWPLFYPGIRAGRKNAAPLTIRPPTDWE

What follows are molecules tested on coxsackievirus B3 (CVB3-GFP). Details: HeLa cells, GFP-positive cells within RFP-positive gate, replicate R1.
Format: cell-based

Molecule | Percent Infected R1 [%]
B1 | 66.3
B2 | 62.8
B3 | 60.8
B4 | 63.9
B5 | 61.7
B6 | 61.4
B7 | 60.7
B8 | 58.8
B9 | 58.6

Same assay, conditions: HeLa cells, replicate R1

Molecule | Z score R1
B1 | −0.284
B2 | −0.328
B3 | −0.354
B4 | −0.314
B5 | −0.342
B6 | −0.346
B7 | −0.355
B8 | −0.379
B9 | −0.382
